From article PMC10027511, “Disordered proteins mitigate the temperature dependence of site-specific binding free energies” (The Journal of Biological Chemistry, 2023)
Where two headings read alike, the source gives them in different places.

Columns and labels:
[1] = system: N-terminal SH3 domain of Drk (T22G); experiment: ITC of Sos constructs (cell) with SH3 (syringe); type: binding, Drosophila melanogaster; conditions: for Kd: single-site model
Protocol: volume solution of SH3 was prepared in the same buffer, at an identical concentration of SH3. Measurements were
made at 4.2, 15, 25, 35 and 45 °C. The sample was then removed, diluted using the larger SH3 solution and returned
(§1) µM, with SH3 at 270 µM (Figure S3, Table S2).

[2] = target: N-terminal SH3 domain of Drk (T22G); experiment: 1H-13C HMQC titration of SH3 into 13C-Ile Sos site 4 (NMR TITAN); type: binding, Drosophila melanogaster; conditions: for Kd: 51.5 μM Sos site 4, 20 mM sodium phosphate pH 7.5, 5% D2O; for Kd / koff / kon / ΔGA°′‡ (activation free energy of association) / ΔGD°′ (dissociation free energy) / ΔGD°′‡ (activation free energy of dissociation): single measurement, bootstrap; for koff / kon / ΔGA°′‡ (activation free energy of association) / ΔGD°′ (dissociation free energy) / ΔGD°′‡ (activation free energy of dissociation): pH 7.5
Description: As an alternative, we measured binding of Sos and SH3 from the opposite perspective, that is, by monitoring the interaction via Sos by moving the NMR-active nuclei from SH3 to Sos. Specifically, we isotopically enriched (^13C-δ1 methyl) isoleucines in the site 4 protein construct. This construct has three isoleucines: I1384 is in site 4; I1394 is adjacent to site 4; and I1325 is likely distant from site 4. Assignments were made via mutagenesis (Supplemental Material, Fig. S5). […] High-quality fits were obtained using two-dimensional lineshape analysis (Figs. S6–S10), yielding affinities (Table 1) similar to those from ITC (Table 2), and site 4 peptide, but only at low temperatures (Table 1) ([34]).
Figure 3 ^1H–^13C HMQC titration of Sos site 4 at 35 °C.A, spectra. B, simulated spectra from TITAN fits. C, van’t Hoff and Eyring analyses of ^1H–^13C HMQC titrations. Measurements were made with a constant concentration of 51.5 μM Sos site 4, with titration points signified by crosspeaks of different colors. SH3 concentrations are 270, 122, 100, 75.0, 50.0, 37.5, 25.0, 12.5, 6.25, 3.13, […], 0.781, 0.391, and 0 μM. HMQC, heteronuclear multiple quantum correlation; Sos, Son of sevenless.
NMR data were acquired using Bruker Avance III HD spectrometers equipped with QCI cryoprobes (^1H Larmor frequencies of 500, 470 MHz for ^19F), or TCI cryoprobes (^1H Larmor frequencies of 850 MHz, 213 MHz for ^13C). Data were processed using NMRpipe (2020.171.18.39). Spectra across different temperatures are referenced to trimethylsilylpropanesulfonate.
^1H–^13C correlation spectra were acquired using a heteronuclear multiple quantum correlation experiment (optimized for the methyl transverse relaxation optimized spectroscopy effect) ([66]) with between 8 and 40 scans, depending on the signal/noise of the Ile1384 peak. The ^1H sweep width was 15 PPM using 5120 complex points and a center frequency at 4.7 PPM. Forty-eight complex points were collected in the indirect dimension, with a sweep width of 5 PPM, and a center frequency of 12.5 PPM. The water signal was suppressed and dephased using a combination of presaturation and selective shaped pulses. Sos site 4 protein was exchanged into 20 mM sodium phosphate, pH 7.5 plus 5% (v/v) D2O using a PD-10 midi desalting column (Cytiva); its concentration was then adjusted to 51.5 μM. Four hundred microliters of Sos site 4 solution were used to dissolve lyophilized SH3 for the initial titration point, and then spectra were acquired at 4.2, 15, 25, 35, and 45 °C. The solution containing only Sos site 4 was used for a series of dilutions to obtain SH3 titration points of 270, 122, 100, 75.0, 50.0, 37.5, 25.0, 12.5, 6.25, 3.13, 1.56, 0.781, 0.391, and 0 μM.
^1H–^13C heteronuclear multiple quantum correlation titration measurements of SH3 into [^13CH3-Ile]-labeled Sos were analyzed using NMR TITAN, version 1.6 ([34]). Measurements for each temperature were fit to a two-state interaction model, and parameter uncertainties were estimated from 100 bootstrapped replicas ([34], [67]). Ile1384, Ile1394, Ile1325, and one pseudo peak were fit as a single spin group to account for overlapping resonances. Measurements across multiple temperatures were then fitted to the van’t Hoff and Eyring equations to determine Δ HD°′ , TΔ SD,298.15K°′ , Δ HA°′‡ , TΔ SA,298.15K°′‡ , Δ HD°′‡ , and TΔ SD,298.15K°′‡ . Errors generated from TITAN fits were used to perform weighted least squares regressions, and the reported uncertainties are the 95% confidence intervals of fits.

[3] = target: T1, N-terminal SH3 domain of Drk (T22G, 19F-W36) (Drosophila melanogaster, UniProt Q08012, T22G); experiment: 19F NMR titration of SH3 with Sos site 4 (two-state and bidentate fits); type: binding
T1 construct: the N-terminal SH3 domain of Drk (UniProt ID: Q08012); 19F label: 5-fluorotryptophan at W36 (chemical label on the side chain); made in house
Protocol: Data were acquired using Bruker Avance III HD spectrometers equipped with a QCI cryoprobe (1H Larmor frequencies of 500, and 470 MHz for 19F). Data was processed using NMRpipe (2020.171.18.39) and referenced to trimethylsilylpropanesulfonate to account the temperature dependence of chemical shift. […]
site 4 (non-MBD tagged construct) was exchanged into of 50 mM HEPES, 50 mM bis-tris propane, 50 mM sodium acetate pH 7.5 plus 5% (v/v) D2O using a PD-10 Midi column (Cytiva) selecting the fractions with the highest concentration for the titration. The Sos solution was used to dissolved one aliquot of SH3, and a second, larger […]
volume solution of SH3 was prepared in the same buffer, at an identical concentration of SH3. Measurements were made at 4.2, 15, 25, 35 and 45 °C. The sample was then removed, diluted using the larger SH3 solution and returned […]
as §1

[4] = 4.2 °C, SMG construct, 20 mM sodium phosphate pH 7.5, knockout subtracted, three fits
[5] = 298 K, linear Eyring fit, 95% confidence interval
[6] = linear Eyring fit, 95% confidence interval
[7] = 4.2 °C, bidentate fit, strong site
[8] = 4.2 °C, bidentate fit, weak/nonspecific site
[9] = 15 °C, bidentate fit, strong site
[10] = 15 °C, bidentate fit, weak/nonspecific site
[11] = 25 °C, bidentate fit, strong site
[12] = 25 °C, bidentate fit, weak/nonspecific site
[13] = 35 °C, bidentate fit, strong site
[14] = 35 °C, bidentate fit, weak/nonspecific site
[15] = 45 °C, bidentate fit, strong site
[16] = 45 °C, bidentate fit, weak/nonspecific site

T1 sequence (Q08012 1-58 T22G): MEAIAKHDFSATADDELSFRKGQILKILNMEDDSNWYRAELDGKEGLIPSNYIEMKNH

B1: Site 4: Sos residues 1177 to 1405, L1203A, L1372A, R1375A, C1306S, C1357S, L1346A, R1349A, R1350A (protein, UniProt P26675 1177-1405, looked up, variant L1203A L1372A R1375A C1306S C1357S L1346A R1349A R1350A)
chain: TSSWSGTPQHTRTDQNNGEVSVPAPHAPKKPGAHVWANNNSTLASASAMDVVFSPALPEHLPPQSLPDSNPFASDTEAPPSPLPKLVVSPRHETGNRSPFHGRMQNSPTHSTASTVTLTGMSTSGGEEFSAGGFYFNSAHQGQPGAVPISPHVNVPMATNMEYRAVPPPAPPAAKERTESSADMAQKRQAPDAPTAPPADGELSPPPIPPRLNHSTGISYLRQSHGKSK
For B1, the Kd [1, 4] was 3 ± 1 µM, the “ΔHD°′” value [1, 4] was 2.8 ± 0.1 kcal/mol and the Kd ([1]; 35 °C (35.1 in Table S1), SMG construct, 20 mM sodium phosphate pH 7.5, knockout subtracted, three fits) was 14 ± 3 µM. For the same molecule, the “sign of ΔCP,D” value ([1]; from ΔHD°′ at 4.2 and 35 °C) was “positive”, the “stoichiometry before knockout subtraction” value ([1]; unsaturated after >3 mole equivalents, specific plus nonspecific binding) was greater than 1 and the Kd ([2]; 4.2 °C) was 3 ± 0.2 µM. The koff ([2]; 4.2 °C) was 0.093 ± 0.002 10^3 s^−1, the kon ([2]; 4.2 °C) was 0.31 ± 0.02 10^8 M^−1 s^−1 and the “ΔGA°′‡ (activation free energy of association)” value ([2]; 4.2 °C) was 6.69 ± 0.07 kcal/mol. The “ΔGD°′ (dissociation free energy)” value ([2]; 4.2 °C) was 7.01 ± 0.07 kcal/mol, the “ΔGD°′‡ (activation free energy of dissociation)” value ([2]; 4.2 °C) was 13.70 ± 0.02 kcal/mol and the “temperature dependence of ΔGD°′‡ and ΔGA°′‡” value ([2]; 4.2–45 °C) was “do not change with temperature”. The Kd ([2]; 15 °C) was 4.5 ± 0.2 µM, the koff ([2]; 15 °C) was 0.25 ± 0.09 10^3 s^−1 and the kon ([2]; 15 °C) was 0.56 ± 0.03 10^8 M^−1 s^−1. The “ΔGA°′‡ (activation free energy of association)” value ([2]; 15 °C) was 6.64 ± 0.06 kcal/mol, the “ΔGD°′ (dissociation free energy)” value ([2]; 15 °C) was 7.05 ± 0.04 kcal/mol and the “ΔGD°′‡ (activation free energy of dissociation)” value ([2]; 15 °C) was 13.69 ± 0.04 kcal/mol. The Kd ([2]; 25 °C) was 6.4 ± 0.2 µM, the koff ([2]; 25 °C) was 0.62 ± 0.03 10^3 s^−1 and the kon ([2]; 25 °C) was 0.97 ± 0.06 10^8 M^−1 s^−1. The “ΔGA°′‡ (activation free energy of association)” value ([2]; 25 °C) was 6.56 ± 0.06 kcal/mol, the “ΔGD°′ (dissociation free energy)” value ([2]; 25 °C) was 7.09 ± 0.03 kcal/mol and the “ΔGD°′‡ (activation free energy of dissociation)” value ([2]; 25 °C) was 13.64 ± 0.05 kcal/mol. For the same molecule, the Kd ([2]; 35 °C) was 9.7 ± 0.2 µM, the koff ([2]; 35 °C) was 1.25 ± 0.04 10^3 s^−1 and the kon ([2]; 35 °C) was 1.29 ± 0.05 10^8 M^−1 s^−1. For the same molecule, the “ΔGA°′‡ (activation free energy of association)” value ([2]; 35 °C) was 6.62 ± 0.04 kcal/mol, the “ΔGD°′ (dissociation free energy)” value ([2]; 35 °C) was 7.07 ± 0.02 kcal/mol and the “ΔGD°′‡ (activation free energy of dissociation)” value ([2]; 35 °C) was 13.69 ± 0.03 kcal/mol. The Kd ([2]; 45 °C) was 17.8 ± 0.5 µM, the koff ([2]; 45 °C) was 4.4 ± 0.2 10^3 s^−1 and the kon ([2]; 45 °C) was 2.5 ± 0.1 10^8 M^−1 s^−1. The “ΔGA°′‡ (activation free energy of association)” value ([2]; 45 °C) was 6.45 ± 0.05 kcal/mol, the “ΔGD°′ (dissociation free energy)” value ([2]; 45 °C) was 6.91 ± 0.03 kcal/mol and the “ΔGD°′‡ (activation free energy of dissociation)” value ([2]; 45 °C) was 13.36 ± 0.05 kcal/mol. The “TΔSA°′‡ (activation entropy of association)” value [2, 5] was 1 ± 1, the “TΔSD°′‡ (activation entropy of dissociation)” value [2, 5] was 1 ± 2 and the “TΔSD°′ (van't Hoff)” value ([2]; 298 K, linear van't Hoff fit, 95% confidence interval) was 0 ± 2 kcal/mol. For the same molecule, the “ΔHA°′‡ (activation enthalpy of association)” value [2, 6] was 7 ± 1 kcal/mol, the “ΔHD°′‡ (activation enthalpy of dissociation)” value [2, 6] was 14 ± 1 kcal/mol and the “ΔHD°′ (van't Hoff)” value ([2]; linear van't Hoff fit of 4.2-45 °C data, 95% confidence interval) was 7 ± 2 kcal/mol. For the same molecule, the “Site 1 koff” value [3, 7] was 0.080 103 s-1, the “Site 1 kon” value [3, 7] was 0.37 108 s-1 M-1 and the Kd ([3]; 4.2 °C, bidentate fit, strong site, 50 mM HEPES, 50 mM bis-tris propane, 50 mM sodium acetate pH 7.5, 5% D2O, MG construct, read-out: Site 1 KD) was 2.15 µM. The “Site 2 koff” value [3, 8] was 11 ± 4 103 s-1, the “Site 2 kon” value [3, 8] was 0.15 108 s-1 M-1 and the Kd ([3]; 4.2 °C, bidentate fit, weak/nonspecific site, read-out: Site 2 KD) was 800 µM. For the same molecule, the Kd ([3]; 4.2 °C, two-state model (poor fit), read-out: KD) was 0.3 µM, the “Site 1 koff” value [3, 9] was 0.239 103 s-1 and the “Site 1 kon” value [3, 9] was 0.49 108 s-1 M-1. The Kd ([3]; 15 °C, bidentate fit, strong site, pH 7.5, read-out: Site 1 KD) was 4.9 µM, the “Site 2 koff” value [3, 10] was 15 ± 4 103 s-1 and the “Site 2 kon” value [3, 10] was 0.10 108 s-1 M-1. The Kd ([3]; 15 °C, bidentate fit, weak/nonspecific site, read-out: Site 2 KD) was 1500 µM, the “Site 1 koff” value [3, 11] was 0.667 103 s-1 and the “Site 1 kon” value [3, 11] was 0.63 108 s-1 M-1. For the same molecule, the Kd ([3]; 25 °C, bidentate fit, strong site, pH 7.5, read-out: Site 1 KD) was 10.6 µM, the “Site 2 koff” value [3, 12] was 19 ± 5 103 s-1 and the “Site 2 kon” value [3, 12] was 0.06 108 s-1 M-1. The Kd ([3]; 25 °C, bidentate fit, weak/nonspecific site, read-out: Site 2 KD) was 3000 µM, the “Site 1 koff” value [3, 13] was 1.74 103 s-1 and the “Site 1 kon” value [3, 13] was 0.80 108 s-1 M-1. The Kd ([3]; 35 °C, bidentate fit, strong site, pH 7.5, read-out: Site 1 KD) was 21.7 µM, the “Site 2 koff” value [3, 14] was 23 ± 7 103 s-1 and the “Site 2 kon” value [3, 14] was 0.04 108 s-1 M-1. The Kd ([3]; 35 °C, bidentate fit, weak/nonspecific site, read-out: Site 2 KD) was 6000 µM, the “Site 1 koff” value [3, 15] was 4.29 103 s-1 and the “Site 1 kon” value [3, 15] was 1.01 108 s-1 M-1. For the same molecule, the Kd ([3]; 45 °C, bidentate fit, strong site, pH 7.5, read-out: Site 1 KD) was 42.6 µM, the “Site 2 koff” value [3, 16] was 30 ± 10 103 s-1 and the “Site 2 kon” value [3, 16] was 0.03 108 s-1 M-1. The Kd ([3]; 45 °C, bidentate fit, weak/nonspecific site, read-out: Site 2 KD) was 10000 µM.
